We go through 167 variants from the RNAGym collection of RNA variant scans (doi:10.1093/nar/gkz1192).

B1: CPEB3 Ribozyme (parent)
chain: UAACAGGGGGCCACAGCAGAAGCGUUCACGUCGCAGCCCCUGUCAGAUUCUGGUGAAUCUGCGAAUUCUGCUGUAUAUCUC

In this data set the parent is B1. As to the kind of experiment: self-cleavage, relative activity (ratio to wild type); higher = more cleavage; in vitro, sequencing. In outline: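 Libraries of CPEB3 self-cleaving ribozyme mutants came from rounds of error-prone PCR and carried barcodes, which DNA sequencing matched to variants. In vitro transcription used T7 RNA polymerase at 37°C for 5 hours, with a further 15 min in DNase I before EDTA stopped the reaction; the ribozymes cleaved during both steps. The RNA was reverse transcribed with template switching and sequenced on Illumina. Relative activity is the cleaved/total read fraction of a variant divided by that of the unmutated ribozyme, averaged over three batches with at least 5 reads.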
Turning to C4U U43C, the self-cleavage was determined as 0.93.
Turning to C4G U69C, the self-cleavage came out at 0.95.
Turning to A5C A28U, the self-cleavage was determined as 1.12.
A5C A28G: the self-cleavage turned out to be 0.63.
Regarding A5G G10U, the self-cleavage came out at 0.39.
With A5C A21U, the self-cleavage is 0.36.
With A5C A21G, the self-cleavage was 0.69.
As for A5G C14U, the self-cleavage was 0.8.
Under C4U U67C stands 0.42; under C4U U67A, 0.76; under A5C U80C, 1.05.
Under A5C U80A stands 1.19.
Consider A5C U25C, for which the self-cleavage is 0.15.
As for A5G A20G, the figure is 0.54; as for A5G A20C, 0.58.
With A5G A20U, the self-cleavage worked out at 0.37.
Consider C4U C37U, for which the self-cleavage stood at 0.91.
On to C4U C37G, for which the self-cleavage was determined as 0.9.
Under A5G A28C stands 0.61.
For A5G A28U, the self-cleavage is 0.55.
Take A5G A28G: the self-cleavage is 0.48.
As for A5C G6U, the self-cleavage is 0.32.
Turning to C4U A65G, the self-cleavage is 0.43.
On to A5C G46U, for which the self-cleavage came out at 0.06.
For the variant A5G U48G, the self-cleavage turned out to be 0.1.
Turning to A5G U48C, the self-cleavage stood at 0.57.
As for A5G U48A, the figure is 0.45; as for A5G A15G, 0.6; as for A5G A15C, 0.83.
As to A5G A15U, the self-cleavage turned out to be 0.61.
Under A5C A15G stands 0.96; under A5C A15U, 0.99; under A5C A15C, 0.81.
For the variant C4U A13C, the self-cleavage was found to be 1.21.
As for A5G A75U, the figure is 0.83; as for A5G A75G, 0.49; as for A5G A75C, 0.57.
Take C4U U80C: the self-cleavage is 1.19.
Take C4U C40U: the self-cleavage came to 0.86.
Consider A5C G30U, for which the self-cleavage stood at 0.24.
With A5C G30A, the self-cleavage is 0.19.
Consider C4U A57G, for which the self-cleavage was determined as 1.05.
Turning to C4U G10U, the self-cleavage turned out to be 0.25.
As for C4U G10A, the self-cleavage came out at 0.63.
As to A5G A47G, the self-cleavage worked out at 0.65.
Take A5G A47C: the self-cleavage worked out at 0.59.
In the case of A5G A47U, the self-cleavage came out at 0.34.
For the variant C4U U41C, the self-cleavage was 1.07.
For C4U U41A, the self-cleavage came out at 0.48.
Under A5C U43G stands 0.38; under A5C U43C, 0.57.
A5C U43A: the self-cleavage worked out at 1.13.
With C4U G7C, the self-cleavage was determined as 0.13.
Take A5G U69C: the self-cleavage came out at 0.37.
Consider A5G U69A, for which the self-cleavage was found to be 0.49.
For A5G U69G, the self-cleavage turned out to be 0.49.
In the case of A5G C40U, the self-cleavage is 0.27.
Turning to A5G C40G, the self-cleavage came to 0.22.
As for A5G C40A, the figure is 0.26; as for A5G U49A, 0.53.
As to A5G U49C, the self-cleavage was found to be 0.31.
Consider A5G A13U, for which the self-cleavage is 0.98.
A5G A13G: the self-cleavage is 0.56.
Turning to A5G A13C, the self-cleavage is 0.76.
For the variant A5C U72C, the self-cleavage worked out at 1.09.
A5C U72A: the self-cleavage was determined as 0.98.
Regarding A5C U49C, the self-cleavage worked out at 0.54.
In the case of A5C C71U, the self-cleavage came out at 0.57.
Consider C4U C17U, for which the self-cleavage was 1.05.
Regarding A5C C62U, the self-cleavage was determined as 0.13.
A5G G24C: the self-cleavage stood at 0.89.
On to A5G G24U, for which the self-cleavage turned out to be 0.24.
Under C4U C38A stands 0.54; under A5G G19C, 0.41; under A5G G19A, 0.53.
As for A5G G19U, the figure is 0.45.
As to A5G C38A, the self-cleavage amounted to 0.44.
Take A5G C38U: the self-cleavage came to 0.46.
Turning to A5G C38G, the self-cleavage was determined as 0.37.
As to A5G G73C, the self-cleavage amounted to 1.25.
Under A5G G73A stands 1.17; under A5G G73U, 1.17.
In the case of A5G C39U, the self-cleavage turned out to be 0.67.
Under A5G C39A stands 0.39; under C4U A64U, 0.7.
Consider C4U U76C, for which the self-cleavage came to 1.16.
For the variant C4U A15G, the self-cleavage is 1.17.
For the variant C4U A15U, the self-cleavage is 0.86.
Under A5C C37G stands 0.87; under A5C C37U, 0.76; under A5G C37U, 0.63.
On to C4U C29U, for which the self-cleavage was 0.72.
As to A5C A18G, the self-cleavage is 0.53.
As to A5C G8C, the self-cleavage came to 0.36.
Turning to A5C G8A, the self-cleavage stood at 0.46.
With C4U A35U, the self-cleavage was found to be 0.81.
For the variant C4U A35G, the self-cleavage came to 1.29.
As to A5G C44U, the self-cleavage was found to be 0.43.
For A5C U48C, the self-cleavage is 0.94.
Turning to A5G U54A, the self-cleavage is 0.82.
Turning to A5G U54C, the self-cleavage was 0.64.
As to A5G U54G, the self-cleavage turned out to be 0.47.
With A5G A45C, the self-cleavage was determined as 0.42.
Take A5G A45G: the self-cleavage was 0.63.
Consider A5G A45U, for which the self-cleavage amounted to 0.36.
In the case of A5C A35G, the self-cleavage was 1.18.
As for A5C A35U, the figure is 0.54; as for A5G A65G, 0.39.
Consider A5G A65C, for which the self-cleavage worked out at 0.25.
Consider A5G A65U, for which the self-cleavage amounted to 0.19.
In the case of C4U U58C, the self-cleavage turned out to be 1.06.
For the variant C4U C12U, the self-cleavage was 1.21.
As for A5G G52A, the figure is 1; as for A5G G52U, 0.73.
In the case of A5C C32G, the self-cleavage was determined as 0.
As for A5G C11G, the self-cleavage was determined as 0.5.
As for A5G C29G, the self-cleavage amounted to 0.57.
Under A5G C29U stands 0.26.
For A5G G70A, the self-cleavage amounted to 0.32.
With A5G G70C, the self-cleavage is 0.25.
Under A5G G70U stands 0.41; under C4U, 1.17.
Turning to C4U G8U, the self-cleavage was found to be 0.38.
As for C4U G8A, the figure is 0.28; as for C4U A20U, 0.42.
With C4U A20C, the self-cleavage amounted to 0.21.
Take C4U A20G: the self-cleavage came to 0.81.
Under A5C U74C stands 1.19; under A5C C23G, 0.18.
As for A5G U74C, the figure is 1.01; as for A5G U74A, 1.03.
As for A5G U74G, the figure is 1.41; as for C4U U25G, 0.45; as for C4U U25C, 0.2.
Take C4U U25A: the self-cleavage worked out at 0.31.
With C4U U31A, the self-cleavage amounted to 0.82.
As to C4U U31C, the self-cleavage turned out to be 1.11.
Take A5G G61A: the self-cleavage turned out to be 0.49.
Under C4U U51C stands 1.16; under C4U U51A, 0.98.
Consider C4U U74C, for which the self-cleavage was 1.18.
Under C4U A75G stands 1.15; under A5C U26C, 0.58; under A5C U26A, 1.04.
For C4U U26A, the self-cleavage was found to be 1.13.
C4U U26C: the self-cleavage turned out to be 0.88.
In the case of C4U U49C, the self-cleavage came out at 0.69.
For the variant A5G A77U, the self-cleavage was found to be 0.78.
With A5G A77G, the self-cleavage turned out to be 0.71.
For the variant A5G G6A, the self-cleavage amounted to 0.29.
Under A5G G6U stands 0.23; under C4U C50A, 1.17.
As to A5G C27U, the self-cleavage turned out to be 0.13.
For the variant A5G C27A, the self-cleavage was 0.44.
In the case of A5G A35C, the self-cleavage stood at 0.85.
Under A5G A35U stands 0.36; under A5G A35G, 1.18; under C4U C27U, 0.56.
For A5G G53C, the self-cleavage came out at 0.8.
As to A5G G53A, the self-cleavage was determined as 0.88.
Under A5G G53U stands 1.03.
As for A5G A56U, the figure is 0.43.
Under A5G A56G stands 0.39; under C4G U72A, 1.13.
As to A5G U43C, the self-cleavage was 0.43.
In the case of A5G U43G, the self-cleavage was found to be 0.3.
In the case of A5G U43A, the self-cleavage is 0.84.
